Reference: the RNAGym collection of RNA variant scans (doi:10.1021/acssynbio.7b00057)

B1: Pistol ribozyme (parent)
chain: GGGUCGUUGUUCCAUAAUCGCGUGGAUAUGGCACGCAAGUUUCUACCGGGCACCGUAAAUGUCCGACUGGAGCCGUUCGGGCGGCUAUAAACAGACCUCAGGCCCGAAGCGUGGCGGCACCUGCCGCCGGUGGUAAAAAAGAUCGGAAGAGCACACGUCU

Variants of: B1
Experiment: aptazyme ON/OFF ratio, guanine; higher = stronger switching; co-transcriptional cleavage with and without guanine

Aptazyme ON/OFF ratio, 2.43:
U7A U8C U10G U11C C12A

Aptazyme ON/OFF ratio, 1.23:
U7A U8C U10A U11A C12G
U7A U8C U10C U11C C12U C13G
U7A U8C U10C U11G C13U

Aptazyme ON/OFF ratio, 1.38:
U7A U8C U10C C12U C13U

Aptazyme ON/OFF ratio, 1.27:
U7A U8C U10A U11C C12G C13G
U7A U8C U10C U11A C12U C13U
U7A U8C U10G U11C C13U
U7A U8C G9U U11G C13U
U7A U8C U10G C12U
U7A U8C U11A C12A C13U

Aptazyme ON/OFF ratio, 1.57:
U7A U8C U10G U11C C12G C13U

Aptazyme ON/OFF ratio, 1.18:
U7A U8C U10C U11A C12A C13A
U7A U8C U10A U11A C12U
U7A U8C U10G U11A C12G C13A
U7A U8C U10C U11G C12A C13U
U7A U8C G9U U10G C12A C13G
U7A U8C U10G U11C C13G
U7A U8C U10G U11C C13A
U7A U8C G9U U10G U11G C12A
U7A U8C G9U U10C U11G C12U C13G
U7A U8C G9U U10C U11G C12U C13U
U7A U8C U10A U11A

Aptazyme ON/OFF ratio, 1.11:
U7A U8C G9U U10G U11G C12U C13G
U7A U8C U10A C12U C13A
U7A U8C G9U U10G U11G
U7A U8C G9U U10G U11G C12A C13G
U7A U8C G9U U10C U11G C12G C13G
U7A U8C U10A U11A C12G C13A
U7A U8C U10G U11A C12U

Aptazyme ON/OFF ratio, 1.26:
U7A U8C U10C C12A C13U
U7A U8C U10C C12U C13G

Aptazyme ON/OFF ratio, 1.1:
U7A U8C U10C U11C C12G C13G

Aptazyme ON/OFF ratio, 1.19:
U7A U8C U10C U11A C12U C13G
U7A U8C G9U U10G C12G C13A

Aptazyme ON/OFF ratio, 1.32:
U7A U8C U10C C13G
U7A U8C G9U U10G U11C C12G
U7A U8C U11A C12A

Aptazyme ON/OFF ratio, 1.16:
U7A U8C G9U U11G C12G C13G
U7A U8C G9U U10G U11G C12U C13U
U7A U8C U10C U11A C13G
U7A U8C U10C U11G C12U C13G
U7A U8C U11A C12G
U7A U8C U11A C12A C13G
U7A U8C G9U U10G C13G

Aptazyme ON/OFF ratio, 1.15:
U7A U8C U10C U11A C12A C13G
U7A U8C U10C C12A C13G
U7A U8C U10C U11A C13A
U7A U8C U10A U11G C12A C13G
U7A U8C G9U U10C U11G C12U C13A
U7A U8C U10G U11G C12A C13G

Aptazyme ON/OFF ratio, 1.2:
U7A U8C U10G U11A C12G C13U
U7A U8C G9U U10G U11A C12U C13U
U7A U8C U10C U11G C13A
U7A U8C G9U U11A C12G C13U
U7A U8C G9U U11G C13A
U7A U8C U10G U11A C12U C13A
U7A U8C U10G U11A C12U C13U
U7A U8C U11A C12A C13A

Aptazyme ON/OFF ratio, 1.07:
U7A U8C G9U U11G C12G C13U
U7A U8C G9U U10G U11G C12U C13A
U7A U8C G9U U10G C12A C13U
U7A U8C U10C U11C C12U C13U
U7A U8C U10A U11C C12U C13A
U7A U8C U10A U11C C12U C13G
U7A U8C U10A U11C C12A C13A

Aptazyme ON/OFF ratio, 1.17:
U7A U8C U10A U11A C12A
U7A U8C U10C C12U C13A
U7A U8C U10C U11A C13U
U7A U8C U10A U11G C12A C13A
U7A U8C G9U U10C U11G C12G C13A
U7A U8C U10C U11A C12G C13A
U7A U8C G9U U10G U11C C12G C13G
U7A U8C G9U U11C C12U C13U
U7A U8C U10C U11C C13G
U7A U8C G9U U10G U11C C13A
U7A U8C U10A U11G
U7A U8C U10G U11C C12G C13G
U7A U8C G9U U10G C12U
U7A U8C U10A U11C C12A C13G

Aptazyme ON/OFF ratio, 1.41:
U7A U8C G9U U10G U11A C12A C13U

Aptazyme ON/OFF ratio, 1.45:
U7A U8C G9U U10G C12A C13A
U7A U8C U10G U11C C12G C13A

Aptazyme ON/OFF ratio, 1.24:
U7A U8C U10C U11G C13G
U7A U8C G9U U10G C13U

Aptazyme ON/OFF ratio, 1.42:
U7A U8C U10G U11A C12A

Aptazyme ON/OFF ratio, 1.13:
U7A U8C U10A U11C C12G C13U
U7A U8C G9U U10G U11A C12A C13G
U7A U8C G9U U10G C12G

Aptazyme ON/OFF ratio, 1.53:
U7A U8C G9U U10G C12A

Aptazyme ON/OFF ratio, 1.14:
U7A U8C U10G U11A C12G C13G
U7A U8C U10G C12U C13G
U7A U8C G9U U10G C12U C13U
U7A U8C G9U U10G C12G C13G
U7A U8C G9U U11A C12G C13A
U7A U8C G9U U10G U11A C12A
U7A U8C U10G U11G C12A C13A
U7A U8C U10G U11A C12U C13G

Aptazyme ON/OFF ratio, 1.08:
U7A U8C U10A C12U C13G
U7A U8C U10A U11C C12G C13A
U7A U8C U10C C13A
U7A U8C G9U U10G U11C C13G

Aptazyme ON/OFF ratio, 1.34:
U7A U8C U10G C12U C13U
U7A U8C U10G U11G C12U
U7A U8C U10G U11G C12A C13U
U7A U8C U10G U11C C12A C13A
U7A U8C G9U U10G C13A

Aptazyme ON/OFF ratio, 3.16:
U7A U8C G9U U10G

Aptazyme ON/OFF ratio, 2.72:
U7A U8C U10G U11C C12G

Aptazyme ON/OFF ratio, 1.09:
U7A U8C G9U U10G U11A C12U C13G
U7A U8C U10C U11C C12G C13U

Aptazyme ON/OFF ratio, 1.39:
U7A U8C U10G U11C C12A C13U

Aptazyme ON/OFF ratio, 2.97:
U7A U8C U10C C13U

Aptazyme ON/OFF ratio, 1.61:
U7A U8C G9U U10G C12U C13A

Aptazyme ON/OFF ratio, 1.28:
U7A U8C U10C U11G C12A C13G
U7A U8C U10G U11C C12U
U7A U8C U10C U11G C12U C13A
U7A U8C U10C U11G C12U C13U
U7A U8C U10A U11A C12G C13U
U7A U8C G9U U10G C12G C13U

Aptazyme ON/OFF ratio, 1.37:
U7A U8C G9U U10G U11G C12A C13U
U7A U8C U10G U11A C12G

Aptazyme ON/OFF ratio, 1.01:
U7A U8C U10A C13G
U7A U8C U10C U11C C13U

Aptazyme ON/OFF ratio, 1.03:
U7A U8C G9U U10G U11C
U7A U8C U10C U11C C13A
U7A U8C G9U U10G U11C C13U
U7A U8C U10A U11C

Aptazyme ON/OFF ratio, 1.12:
U7A U8C G9U U10G U11G C12A C13A
U7A U8C G9U U11C C12U C13A
U7A U8C G9U U11G C13G
U7A U8C U10C U11C C12G C13A
U7A U8C G9U U10G U11C C12U
U7A U8C U10G C12G
U7A U8C U10G U11C C12A C13G

Aptazyme ON/OFF ratio, 1.05:
U7A U8C U10A C13U
U7A U8C U10A U11C C12U C13U

Aptazyme ON/OFF ratio, 1.04:
U7A U8C G9U U10G U11A C12A C13A
U7A U8C U10G U11G C12G
U7A U8C G9U U11C C12U C13G

Aptazyme ON/OFF ratio, 1.21:
U7A U8C U10C U11A C12A C13U
U7A U8C U10G C12U C13A
U7A U8C U10C U11A C12U C13A
U7A U8C U10C U11A C12G C13U
U7A U8C G9U U10G U11C C12G C13U
U7A U8C G9U U10G U11A C12G
U7A U8C U10G C12A

Aptazyme ON/OFF ratio, 1.31:
U7A U8C U10A U11A C12G C13G

Aptazyme ON/OFF ratio, 1.25:
U7A U8C U10C C12A C13A
U7A U8C U10G U11G C12A
U7A U8C G9U U10G U11G C12U
U7A U8C G9U U10G U11C C12A

Aptazyme ON/OFF ratio, 1.06:
U7A U8C U10A C13A
U7A U8C G9U U10G U11A C12U C13A
U7A U8C G9U U10G U11A
U7A U8C U10C U11C C12U C13A
U7A U8C G9U U10C U11G C12G C13U

Aptazyme ON/OFF ratio, 1.72:
U7A U8C G9U U10G C12U C13G

Aptazyme ON/OFF ratio, 1.22:
U7A U8C G9U U11G C12G C13A
U7A U8C U10A C12U C13U
U7A U8C U10A U11G C12A C13U
U7A U8C U10C U11A C12G C13G
U7A U8C G9U U10G U11C C12G C13A
U7A U8C G9U U11A C12G C13G
U7A U8C G9U U10G U11G C12G

Aptazyme ON/OFF ratio, 1.33:
U7A U8C U10C U11G C12A C13A

Aptazyme ON/OFF ratio, 1:
U7A U8C G9U U10G U11A C12U
